Results on two molecules are retold here after patent US20230167458A1, “FORSKOLIN-INDUCIBLE PROMOTERS AND HYPOXIA-INDUCIBLE PROMOTERS” (ASKLEPIOS BIOPHARMACEUTICAL, INC., priority 2020, published 2023).

In data set [1] the test system is HEK293-T. Put plainly: Luciferase expression in normoxia vs 24 h hypoxia, transiently transfected HEK293-T. The format is cell-based, human. The following applies: for relative rank of promoter strength: 24 h hypoxia vs 24 h normoxia. On the procedure:
HEK293-T are seeded at a density of 20%. Once they reached a confluence between 60 and 80%, the media is changed with DMEM (#21885-025—Thermo Scientific) supplemented with 10% FBS (Gibco, 26140). After 3 hours, the cells were transfected by a transfection mix. The transfection mix is prepared by adding DNA ([…] per 6 well plate) and PEI 25 kDA (#23966-1—Polyscience) in a ratio of 1:3 in sterile DPBS (#14190169—ThermoFisher Scientific). After mixing, the transfection mix is incubated at room temperature for 30 minutes and then added directly to the cells. After 16 to 18 h post transfection, the media is changed to DMEM+2% FBS. The transfected DNA was one of the vectors where the promoter constructs (RTV-015, HYBT, RTV-016, HV3C) or a control promoter (CMV-IE) were used to drive luciferase expression and β-galactosidase containing pcDNA6 plasmid. The β-galactosidase containing plasmid was used as internal control for transfection efficiency (Thermofisher, V22020).
After transfection the cells were incubated for 24 hrs in normoxic conditions (20% oxygen). Induction of the promoters was assessed by using luciferase activity after 24 hrs in normoxia or hypoxia (5% oxygen, 10% carbon dioxide and 85% nitrogen). Hypoxia was achieved by gas displacement in a sealed hypoxia chamber.
Luciferase activity was measured using LARII (Dual Luciferase Reporter 1000 assay system, Promega, E1980).
Media was removed from the cells at the respective time point (0, 3, 5, 24 hrs after induction). The cells were washed once in 300 μl of DPBS. Cells were lysed by adding 100 μl of passive lysis buffer to the cells and incubation with rocking for 15 minutes. The cell debris was pelleted by centrifugation of the plate at max speed in a benchtop centrifuge for 1 min. 10 μl of supernatant was pipetted into white 96-well plate and luminescence measured by addition of 50 μl of LARII substrate.
β-galactosidase activity was measured as per manufacturer's instructions (Mammalian βGalactosidase Assay Kit, 75707/75710, Thermo Scientific) using 25 μl of lysate. 25 μl of lysate was transferred into a microplate well and mixed with 25 μl of β-galactosidase Assay Reagent, equilibrated to room temperature. The mixture was incubated at 37° C. for 30 min and absorbance measured at 405 nm.
Luciferase readouts were normalised to β-galactosidase to produce normalised relative luminometer units (RLUs).

Data set [2] deals with CHO-GSK1SV cell line. Put plainly: SEAP expression and cell number in normoxia vs 24 h hypoxia, stably transfected CHO-GS-KSV1. The format is cell-based, chinese hamster. The following applies: stably integrated CHO-GSK1SV. On the procedure: Cell suspensions of 6×10^5 cells per mL are incubated on an orbital shaker set at 8% CO2, 20% O2, 37° C., 85% relative humidity and 140 rpm overnight. 2.86×10^7 cells were centrifuged at 200 g for 3 minutes. Media is then aspirated and cell pellet resuspended in 2 mL fresh CD-CHO media to obtain a concentration of 1.43×10^7 cells per mL. 700 μL of cell suspension was added to each of two electroporation cuvettes each containing […] of linearised DNA in 100 μL of sterile TE buffer (Thermofisher, 12090015). Each cuvette was electroporated, delivering a single pulse of 300V, […] with resistance to infinity. Immediately after delivery of pulse electroplated cells were transferred to Erlenmeyer 125 mL flask containing 20 mL of CD-CHO media pre-warmed to 37° C. Electroporated cells from two cuvettes are combined into a single 125 mL flask to generate one pool of cells. Cells are cultured on an orbital shaker set at 8% CO2, 20% 02, 37° C., 85% relative humidity and 140 rpm. Cells are transferred to fresh CD-CHO media 24 hours after transfection and cell cultures monitored and given fresh CD-CHO media every 2-4 days. Usually after about 10-14 days cell numbers will be high enough to start passaging. Cells were selected at 14 days and then expanded. Induction was performed once doubling time had returned to approx. 24 hrs. The cells assayed in this example were at passage number 15, 17, 19 and 21.
The transfected DNA was pXC-17.4 expression vector (Lonza Biologics plc) where one of the promoter constructs (RTV-015, HYBT, RTV-016, HV3C) or a control promoter (CMV-IE) have been cloned upstream of the SEAP gene, which had been cloned into the multiple cloning site within the vector expression cassette. Promoters were closed into the pXC-17.4 vector using Gibson assembly. The pXC-17.4 expression vector is designed for making stable cell lines in the CHO-GSK1SV cell line as it contains the […] gene which has been knocked out of the cell line. Therefore, selection of cells in glutamine drop-out medium will select for cells that have stably integrated the plasmid.
Stably transfected CHO-GS cells were seeded at 500,000 cells/ml and allowed to grow for 24 hrs, at this point the cells were counted and placed under hypoxic conditions as previously described. After 24 hrs, the cell numbers and the expression of SEAP was measured.
SEAP Reporter Gene Assay, chemiluminescent (Roche, CAT #11 779 842 001) was used to measured SEAP activity as per manufacturers protocol. All reagents and samples were fully pre-equilibrated at room temperature. Culture supernatant was collected from the stably transfected CHO-GS at the specific time points (0 h and 24 h). The supernatant was diluted 1:4 in dilution buffer and heat treated at 65° C. for 30 minutes. The heat-treated sample was then centrifuged for 30 s at maximum speed. 50 μl of the heat-treated sample was then added to 5 μl of inactivation buffer and incubated for 5 min at room temperature. 50 μl of substrate reagent was then added and incubated for 10 min at room temperature. The signal is then read at 477 nm and compared to a calibration curve. SEAP expression was normalized against cell number to ensure that the increase in activity was not due to increased cell numbers and was true induction. The result of this experiment can be seen in FIG. 16 and FIG. 17.

B1: HV3C: synthetic hypoxia-inducible promoter, SEQ ID NO: 85/87; 4 HRE3 elements and CMV minimal promoter (nucleic acid)
DNA: GATCTTTGTATTTAATTAAGACCTTGAGTACGTGCGTCTCTGCACGTATGGCGATTAAGACCTTGAGTACGTGCGTCTCTGCACGTATGGCGATTAAGACCTTGAGTACGTGCGTCTCTGCACGTATGGCGATTAAGACCTTGAGTACGTGCGTCTCTGCACGTATGGCGATTAATCCATATGCAGGTCTATATAAGCAGAGCTCGTTTAGTGAACCGTCAGATCGCCTAGATACGCCATCCACGCTGTTTTGACCTCCATAGAAGATCGCCACC
modifications: Synp-HV3C
notes: 4 HRE3 elements and CMV minimal promoter
On to B1, for which, in data set [1], the “inducibility after 24 hours in hypoxia (rank)” value (“inducibility after 24 hours” for short) is “highest”, the “luciferase activity in normoxia” value was “almost no luciferase activity” and the “relative rank of promoter strength” value is “strongest”. In addition, in data set [2], the “SEAP activity in normoxia” value is on record as “almost no SEAP activity” and the “inducibility after 24 hours” value is given as “highest”.

B2: RTV-015: synthetic hypoxia-inducible promoter, SEQ ID NO: 81; 5 HRE1 elements spaced by 40 bp and minimal promoter MP1 (nucleic acid)
DNA: ACGTGCGATGATGCGTAGCTAGTAGTGATGATGCGTAGCTAGTAGTACGTGCGATGATGCGTAGCTAGTAGTGATGATGCGTAGCTAGTAGTACGTGCGATGATGCGTAGCTAGTAGTGATGATGCGTAGCTAGTAGTACGTGCGATGATGCGTAGCTAGTAGTGATGATGCGTAGCTAGTAGTACGTGCTTGGTACCATCCGGGCCGGCCGCTTAAGCGACGCCTATAAAAAATAGGTTGCATGCTAGGCCTAGCGCTGCCAGTCCATCTTCGCTAGCCTGTGCTGCGTCAGTCCAGCGCTGCGCTGCGTAACGGCCGCC
modifications: Synp-RTV-015
notes: 5 HRE1 elements spaced by 40 bp and minimal promoter MP1
As for B2, in data set [1], the “inducibility after 24 hours” value is listed as “lowest”, the “luciferase activity in normoxia” value is “almost no luciferase activity” and the “relative rank of promoter strength” value is reported as “weakest”. Further, in data set [2], the “SEAP activity in normoxia” value is listed as “almost no SEAP activity” and the “inducibility after 24 hours” value is given as “lowest”.
